Results published in the DeepSol protein solubility set.

Experiment: soluble on expression in E. coli; label from the status in PepcDB or PDB records
For “GMDETPIFKIKKLTIAENDRSEYIRYAEKNMHDSIPAEEGTLLIGSGHDDAHGEDNYEIEVFRNKGAEDLHIAGSHADDFVETVNKIATKQKVIDLHPEVITTKAQRALNSYADNFVMRLIKVEVKDADAEKFSHAVKKEMTTSMASEPGMEIMMSGTNIDNPNEWYFIEVYANDEAYDIHVKTPHYKEYIEETDGMVKSRDVKTLVRDTLATQGAIVLD”, the “soluble on expression in E. coli” value was “soluble”. For “MSLKAIIFDMDGVLVDSMRFQADAWAKAFQDAGINIVREDIYELEGSNDKRLIKSIFKEARKEPEPEHFERLPEKKRDLLEFDRIKPFEGIPECLDELKRHFRLAMVSGSNRNTVGKIVDKFFSGYFDVVINGSDLERGKPDPDPYLKALEMLGLTKNECMVIENAPLGITAAKRAGLYCVAVASMLEPEKVQHADLVLEDHASLFDYLKSLIPGKPQTEGHHHHHH”, the “soluble on expression in E. coli” value was “soluble”. For “MEKNMKIELITIKEFIEQAECYFRNYMDGLRRNAPDDFYYFLNNKYNMNDIMESIIKKTRYHFYDDTEEGKRNRIYGEVNHCKVKQHLRQLWIVYKCVYR”, the “soluble on expression in E. coli” value was “soluble”. With “AIAADTVDGKKEEADYKRLHNFPLIRHTDMPEEMRVETMELCVTACEKFATNNESAAKMIKESMDKKFGSSWHVVIGEGFGFEITHEVKNLLYMFFGGSLAVCVWKCS” the “soluble on expression in E. coli” value was “soluble”. In the case of “GTIITVTAQANEKNTRTVSTAKGDKKIISVPLFEKEKGSNVKVAYGSAFLPDFIQLGDTVTVSGRVQAKESGEYVNYNFVFPTVEKVFITNDNSSQSQAKQDLFGGSEPIEVNSEDLPF”, the “soluble on expression in E. coli” value is reported as “soluble”. With “MGHHHHHHSHRSIGLKVGLEIHQQLDTREKLFCSCPAELGEEEHDEFVRQLRPTRSELGDVDPAALFEWRKGRLYIYQAPLNHSCLVEADEEPPHPINREAVAVAVAVAKALGSAIVDEVHVMRKTVIDGSNTSGFQRTAIVALGGSIRVGSKEVPIETIVIEEDAARKVGEKGRYVVYRLDRLGIPLIEIATAPVIESPGEAREVALAIGTMLRLTGKVKRGLGTIRQDLNVSIRGGAKTEIKGVQRLELIPRVIEYEVLRQLSLLRIR” the “soluble on expression in E. coli” value was “not soluble”. With “MEWYMGKYIRPLSDAVFTIASDDLWIESLAIQQLHTTANLPNMQRVVGMPDLHPGRGYPIGAAFFSVGRFYPARRRGNGAGNRNGPLL” the “soluble on expression in E. coli” value was “not soluble”. With “MFNFANFYQLIAQDTRLQPWLNVLPQQLTDWQNAEHGDFGRWLKALNKIPEGSPDQVDIKNSVTISNDTPFHEGELKKLENLLRTFHPWRKGPYTVHGIHIDTEWRSDWKWDRVLPHISPLKNRSVLDVGCGNGYHMWRMLGEGARLCVGIDPSHLFLIQFEAIRKLMGGDQRAHLLPLGIEQLPKLEAFDTVFSMGVLYHRRSPLDHLIQLKDQLVSGGELVLETLVIEGDENAVLVPTSRYAQMRNVYFFPSAKALKVWLELVGFEDVHIVDENVTSVDEQRTTDWMTHNSLPDYLDPNDPSKTVEGYPAPRRAVLVARKP” the “soluble on expression in E. coli” value was “not soluble”. In the case of “MGSDKIHHHHHHMDVWLQLLQAEPELRSLTDWNRLATRYTDSPKYTARDASGVFIIHTAPLASLARKKREFELLQQLRHDGLPVPEPLDLKQISATAVCYSRYRFLTGKTIQACLPLCRDKAYRLGQETGRLLQWIHQHEVPRATEWAIRCLEKHKRYVALYQAERPLTDDSIILSFIERNIHLIAGRPNRLQHDDVHLGNLITDGEHLVGLIDFSNHDVGDPWHDFVKMGLFQVDDSIPFAVGQVDGYFARDVPELFWRVYSVYLAMACISSIVWTSRHAPEETDQMRRRFECAVPIWYATFDRT”, the “soluble on expression in E. coli” value is reported as “not soluble”. For “YRNSIEGLIEKGIRDEEFIPYYQPIVDSRTQEVVGYEVLLRWQKGHQLVPPSLFISAAEDSGLVVKITNQLIQQVHRDLAQIPAPRWVSINVVADHLEQHHLTHLLEELHWPYSERLKFELTERVPIKAMTQAQEEVFYLLKKGYQFKIDDFGTGYGGFAYLQNLQISSIKIDKMFVDTINTHDVKISVLDSIIASAQGGNIEVIAEGVEHQYQVDYLAERNVFWIQGYFYAKP”, the “soluble on expression in E. coli” value was “not soluble”. For “MGSDKIHHHHHHMLDRKLLESLGGWQGYGVERVEWPEDPGRTLSIYLKPTAKVMLCEQCGARCRQVHETTVRRVRDLPLFEYRVVLHVPRRRLWCEQCGGPRLERLAWLGRYQRVTDRLAQACSQLLQSSNVQAVARFFELGWHTVKTLDKARLRASVREPDWSKIEYLAMDEFALHKGHRYATVVVDPIGRQVLWIGPGRSRETARAFFEQLPPGAAQRIKAVAIDMTTAYELEIQAHSPQAEIVYDLFHVVAKYGREVIDRVRVDQANQLRQDRPARRIIKSSRWLLLRNRDNLDRQQAVRLDELLQANQPLLTVYVLRDELKRLWFYQRPAWARQAWNHWYEQAEQSGIAALNTFAQRLKGYLHGILARCRHPLNTSIVEGINNTIKVIKRRAYGYRDQEYFFLKIRAAFPGNAR”, the “soluble on expression in E. coli” value was “not soluble”. With “MKFKQDFFTQLPEFYSQVYPQGISNPHWLAWSDDAAALIGLHQPTDELLQGLSGNAAVEGASYYAQVYSGHQFGGYTPRLGDGRSIILGEAIGPNGAWDVALKGGGPTPYSRHGDGRAVMRSAVREFLVSEALHHLGVPTTRALAVIGSDMPVWRESQETAAITVRLARSHIRFGHFEFFSHSERGQADKLTQLLNFTLKQHYPHLSCDPAGYKAWFLQVVQDSAKMIAHWQAIGFAHGVMNTDNMSILGDSFDFGPFAFLDTFQEDFICNHSDPDGRYAFGQQPGIGLWNLQRLAQALTPVIASDDLIAALNQYQHALVQHYLALMRAKLGLVQQADSSAEQDQQDLELIGRFTVLMEKNQLDYSHTWRRFGQLDPSSLHSSLRDDFIDLNEFDAWYQVYQARLGKVTDVEAWQQQCNRVNPKYILRNYLAQEAIIAVDEGNLAQLQRLHQVLRQPFTEQIEHEELAKRPPDWGQGLIMSCSS” the “soluble on expression in E. coli” value was “soluble”. For “MSLNINDALTSILASKKYRALCPDTVRRILTEEWGRHKSPKQTVEAARTRLHGICGAYVTPESLKAAAAALSAGDVKKALSLHASTKERLAELDTLYDFIFSAETPRRVLDIACGLNPLALYERGIASVWGCDIHQGLGDVITPFAREKDWDFTFALQDVLCAPPAEAGDLALIFKLLPLLEREQAGSAMALLQSLNTPRMAVSFPTRSLGGRGKGMEANYAAWFEGGLPAEFEIEDKKTIGTELIYLIKKNGEGHHHHHH”, the “soluble on expression in E. coli” value was “soluble”. With “MPLRVDTLTWLSTQAAPGRVMVWPAVRPGICPGPDVWRIPLGPLPHEFRGWIAPCRPRLGASEAGDWLRRPSEGALPGPYIALRSIPKLPPPEDISGILKELQQLAKELRQKRLSLGYSQADVGIAVGALFGKVLSQTTICRFEAQQLSVANMWKLRPLLKKWLKEVEAENLLGLCKMEMILQQSGKWRRASRERRIGNSLEKFFQRCPKPTPQQISHIAGCLQLQKDVVRVWFYNRSKMGSRPTNDASPREIVGTAGPPCPGAPVCFHLGLGLPVDIPHYTRLYSAGVAHSSAPATTLGLLRF” the “soluble on expression in E. coli” value was “soluble”. For “MGSDKIHHHHHHMKSTGNIIADTICRTAELGLTITGASDAGDYTLIEADALDYTSTCPECSQPGVFRHHTHRMLIDLPIVGFPTKLFIRLPRYRCTNPTCKQKYFQAELSCADHGKKVTHRVTRWILQRLAIDRMSVHATAKALGLGWDLTCQLALDMCRELVYNDPHHLDGVYVIGVDEHKWSHNRAKHGDGFVTVIVDMTGHRYDSRCPARLLDVVPGRSADALRSWLGSRGEQFRNQIRIVSMDGFQGYATASKELIPSARRVMDPFHVVRLAGDKLTACRQRLQREKYQRRGLSQDPLYKNRKTLLTTHKWLSPRQQESLEQLWAYDKDYGALKLAWLAYQAIIDCYQMGNKREAKKKMRTIIDQLRVLKGPNKELAQLGRSLFKRLGDVLAYFDVGVSNGPVEAINGRLEHLRGIALGFRNLNHYILRCLIHSGQLVHKINAL”, the “soluble on expression in E. coli” value was “not soluble”. In the case of “MSLRFTTISKAYDNVTTDDTQYRILIVEDDRSQALFAQSVLQGAGIHAQIEMSASEVLKVIEDYRPDLILMDLNMPELDGISLTTLIRQQPNQLLLPIVFLSGDTDPEKQFEVLDSGADDFLTKPIQPRHLIAAVSNRMHRLRQQQQNAQQADTQINIQKTSITELQTRIHIVEQLEVALSSGAQGALFFIEVSSALNLRTRYGYTAFERLMNQVEYHLAQEAHPYSLARISDHSFLLLAIDLAATEHQALATHLREHLATLPLPIQDDELVHLRSAIGYAPLNQGFKNADDAVECTESATLEARQNNEGIYAYVPLRTPENTGHLALLDGQLELAYQPIVEVAGSDTAQYQVLLRLRKADGNLLSAGLVIPAAEAAGRIMELDQQVIEQALDILKLHQDTNQQLRLFVSQSVRTLIHEGFSDWIIKNLRERNVNGTGLVIDLRLQDAVIHAIPLKQLCKELLKHNVKFCLSQFESNSEATVLFSELPLNFVRLSQHFGDAHNHPERQKELPLLIEQAHEHNLHVIGQCIEDAQAATFMWMNGVDLIQGNLFQNVSKDLNFNFHDMVLEGHHHHHH”, the “soluble on expression in E. coli” value is reported as “soluble”. For “QNDLMIQSQVKFYTILFSARRATPELEIPEGSFYNGIRGYNLFVAKKDRRTGMLHDMMIYDHSQGFADARIIVADSGKLKMDEGKTFLTLMLHSGETFQNLRSQQTESNAPTPYMRERFRTKEIVIPFDANFSLMDEGAMRGEYVGKNLIQLQRFIDTVTLRVDSASFRNANNLYIQTYNAR”, the “soluble on expression in E. coli” value was “not soluble”. In the case of “MQYCELDLSGQWLDTVYCEENFSDFVFIKFLNPSQFEEKIYCYTLHITKRTLENKRLLLYYEDEFKKHGHDINELVGDGIILRSCWNPRQ”, the “soluble on expression in E. coli” value is reported as “soluble”. With “KEVRLSKHFYEDKEIEEIKHKDLAETPFQQQVIDYLYRHIAAQKEKVVEQQLQIKNHEQTITEFVHDIKTPVTAMKLLIDQENDDQRKRALLFEWSRINEMLDKQLYLTRLETHHRDMYFDYISLKRMVIDEIQVTRHISQAKGIGFELDFKDEQKVYTDVKWCRMMIRQVLSNSLKYSDNSTINLSGYNIEGHVVLKIKDYGRGISKRDLPRIFDRGFTSTTDRNDTASSGMGLYLVQSVKEQLGIEVKVDSIVGKGTTFYFIFPQQNEIIERMSKVTRLSF” the “soluble on expression in E. coli” value was “not soluble”. For “MSLAYFGIYDGHGGAEASLYAKEHLMNTIVSQKLFWSENDDDVLKSIREGYIQTHYSMWREQEKWPKTSSGLPSTAGTTASIAFIRRGKIYIGHVGDSGIVLGYQNDKESANDGRWVATPLTEDHKPESYAEKMRIMSCGGKVVTKSGVPRVVWNRPRIGHKGPVRRSTPIDEIPFLAVARSLGDLWSYNSAMDEFVVSPVPDVSVIEIDPKKYRCLIFGSDGLWNVMSPKNAVDIVRNAEMENVRIALEGGNEWKNPSKLLVNEALDRWSRSNMKADNTSVVIIMLDPEGHHHHHH”, the “soluble on expression in E. coli” value was “not soluble”. For “MAHHHHHHMPAHRRYSSVSSSSSRAFSEPSDGGTSSVNDSNSYYSEGSGSYRSVSSVLASRSGAKTTAATTASSTSAVDSSSTNTFSDVLTTSSAYSHSSAPPRRAVTRPAASRSEAVGHKTTKGASGVVVADHNNTGVGETLAQRTASTFTAPTTASSVTVDGTDGLVRAPQSLMLQAALAPVSNRTANVARVKPCNVSEEELVHHPWAPVDCDTTVDASKEGGDRGGLALNVLDTIHTVPIAVPLPPEEAPRRREEGSPTYPSRLAFRVVPSSSPLRHSDSAVTEDKDGTGNGGGGAALGADGATAPRARKTSIACCCCCCLHGCGEKAPCNTKRYTATRQKPHHPLRSHHVPLVSFRTTREHGIPMEGVQNVLPSVEEAARYQNLKVDMMGTEEFPKLMRKAIQPRDRLAGGLRLEKSYAFGHGAGGGRGGAGQSAFVRDGDPQGFWIAHLHRCAIVRLEPIGAE”, the “soluble on expression in E. coli” value was “not soluble”. For “GTQGKVIKCKAAIAWKTGSPLCIEEIEVSPPKACEVRIQVIATCVCHTDINATDPKKKALFPVVLGHECAGIVESVGPGVTNFKPGDKVIPFFAPQCKRCKLCLSPLTNLCGKLRNFKYPTIDQELMEDRTSRFTCKGRSIYHFMGVSSFSQYTVVSEANLARVDDEANLERVCLIGCGFSSGYGAAINTAKVTPGSTCAVFGLGCVGLSAIIGCKIAGASRIIAIDINGEKFPKAKALGATDCLNPRELDKPVQDVITELTAGGVDYSLDCAGTAQTLKAAVDCTVLGWGSCTVVGAKVDEMTIPTVDVILGRSINGTFFGGWKSVDSVPNLVSDYKNKKFDLDLLVTHALPFESINDAIDLMKEGKSIRTILTF”, the “soluble on expression in E. coli” value was “soluble”.
